Results on one molecule are retold here after PMC8251270 (2021).

In this experiment the target is recombinant receptor‐binding motif (RBM) of SARS‐CoV‐2 spike (S) protein, residue 437–508 (SARS-CoV-2, UniProt P0DTC2 437-508). In words: SPR. On the technique in general: In SPR one partner is held on a chip, and binding of the other changes the refractive index at the surface.

B1: mAb8 (antibody, V domains shown)
VH: DVKLVESGGGLVKLGGSLKLSCAASGFTFSTDYMSWVRQSPEKRLELVAAINSNGGTTYYPDTVKGRFIISRDNAKNTLYLQMSSLRSEDTALYYCARQVKNGLDYWGQGTSVTVSS
VL: DIQMTQTTSSLSASLGDRVTISCRASQDISNYLNWYQQKPDGTVKLLIYKTSRLHSGVPSRFRGSGSGTDYSLTISNLEEEDVATYFCQQGNTLPPTFGGGTKLEIK
As for B1, the Kd stood at 57.4 nM.

One may read the Kd as the concentration at which binding is half-saturated.
